# B1: TcpB (minor pilin, N-terminally truncated, first 28 residues excluded) (natural protein)
# chain: GGELMIKSSNAFDVIELSSQIQRYASLSKINNRTNPILKDNKAKEFKDADLKWLKLENCPTAGDVPTTGNNNDLQDQFIACDADYRKGDLSYFGSQFEFSTYVHPSNPEIQRQIKQVVSYFQYRGMERAFIGDAAGYVISEAKKKGFSAQDYRIVLIEPDRVGYFESNAISYEEFIENPSARENFLLKATKDRTLALAVSLAQTGEIAMQRDGSVAFLEDSELCWDTAAGSAKSCLSVRYDTVGNKTELDLKQIDVVSAKGLSFESDGKTKTPVVSTYETFQDGGRAKTINAIECPTGLNNRFAAVVSSFSTAGQNANFSSESAKDSQGTTQKDGSKGPHALLSGISLNWTLTNKVWDVTASIGIESGILPTSGIDSGSLLRNPKSLSFIAFQWCEN
# What was measured:
# Assay in all cases: ITC
# [1] = molecular target: B1
# [2] = molecular target: TcpF (1–20) peptide (Vibrio cholerae, UniProt P0C6Q5 21-40)
# [3] = molecular target: TcpF (1–10) peptide (Vibrio cholerae, UniProt P0C6Q5 21-30)
Binder,Kd [1],Kd [2],Kd [3]
FNDNYSSTSTVYATS [TcpF (1–15) peptide],3000 nM,,
B1,,1700 nM,506000 nM
